According to doi:10.1101/2025.10.27.684941:

Columns and labels:
[1] = biological target: Venus-PDZ1 (ZO-1) (human) (UniProt Q07157); experiment: co-IP
[2] = biological target: biotinylated C-terminal Cx36 peptide, D317F (UniProt O54851); experiment: pull-down
[3] = biological target: biotinylated C-terminal Cx36 peptide, D317A (UniProt O54851); experiment: pull-down

Sequence of UniProt Q07157 (Q07157 whole entry): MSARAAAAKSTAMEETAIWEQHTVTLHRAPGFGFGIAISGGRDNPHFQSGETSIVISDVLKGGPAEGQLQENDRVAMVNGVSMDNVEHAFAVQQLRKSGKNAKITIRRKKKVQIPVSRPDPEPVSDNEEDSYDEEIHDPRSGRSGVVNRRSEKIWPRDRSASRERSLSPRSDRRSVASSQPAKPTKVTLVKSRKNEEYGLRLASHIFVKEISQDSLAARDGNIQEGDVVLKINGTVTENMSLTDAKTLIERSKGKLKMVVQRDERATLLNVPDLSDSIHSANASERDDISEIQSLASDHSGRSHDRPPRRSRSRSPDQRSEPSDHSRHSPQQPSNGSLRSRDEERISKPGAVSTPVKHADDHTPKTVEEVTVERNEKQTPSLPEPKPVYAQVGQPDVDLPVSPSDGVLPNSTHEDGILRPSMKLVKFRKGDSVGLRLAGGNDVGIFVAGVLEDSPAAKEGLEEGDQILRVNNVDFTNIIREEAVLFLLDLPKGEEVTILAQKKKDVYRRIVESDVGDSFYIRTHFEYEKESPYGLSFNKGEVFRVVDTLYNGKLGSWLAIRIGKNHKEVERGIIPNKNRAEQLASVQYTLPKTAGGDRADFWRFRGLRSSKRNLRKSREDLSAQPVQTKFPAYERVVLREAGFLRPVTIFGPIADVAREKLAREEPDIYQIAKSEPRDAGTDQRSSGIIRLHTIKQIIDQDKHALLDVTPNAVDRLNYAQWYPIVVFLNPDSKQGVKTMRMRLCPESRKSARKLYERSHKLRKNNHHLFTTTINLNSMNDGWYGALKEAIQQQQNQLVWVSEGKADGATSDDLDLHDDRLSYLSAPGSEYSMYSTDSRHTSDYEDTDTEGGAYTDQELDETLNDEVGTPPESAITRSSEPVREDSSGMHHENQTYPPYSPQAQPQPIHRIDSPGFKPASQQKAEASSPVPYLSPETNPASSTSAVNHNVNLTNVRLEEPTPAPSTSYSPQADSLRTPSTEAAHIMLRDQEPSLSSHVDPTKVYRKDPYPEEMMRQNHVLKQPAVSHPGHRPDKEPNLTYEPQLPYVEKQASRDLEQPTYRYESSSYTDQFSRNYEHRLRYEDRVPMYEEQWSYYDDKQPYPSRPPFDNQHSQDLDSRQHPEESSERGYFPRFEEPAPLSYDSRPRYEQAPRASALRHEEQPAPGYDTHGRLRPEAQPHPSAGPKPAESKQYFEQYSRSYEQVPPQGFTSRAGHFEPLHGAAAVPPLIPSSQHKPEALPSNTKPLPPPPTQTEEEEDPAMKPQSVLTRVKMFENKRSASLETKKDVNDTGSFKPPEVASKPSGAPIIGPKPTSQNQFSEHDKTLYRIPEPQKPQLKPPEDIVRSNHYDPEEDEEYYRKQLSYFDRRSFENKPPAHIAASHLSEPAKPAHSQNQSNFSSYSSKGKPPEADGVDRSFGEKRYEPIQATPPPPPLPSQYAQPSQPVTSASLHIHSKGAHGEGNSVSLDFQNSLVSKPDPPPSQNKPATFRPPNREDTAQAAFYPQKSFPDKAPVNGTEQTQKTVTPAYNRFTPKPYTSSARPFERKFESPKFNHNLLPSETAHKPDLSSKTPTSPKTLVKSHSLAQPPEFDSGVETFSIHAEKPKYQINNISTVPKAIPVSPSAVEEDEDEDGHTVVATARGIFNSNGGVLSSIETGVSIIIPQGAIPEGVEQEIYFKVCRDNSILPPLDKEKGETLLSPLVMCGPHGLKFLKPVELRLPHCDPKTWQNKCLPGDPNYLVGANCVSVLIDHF

Cx36 D317A (from UniProt O54851 1-321) (natural protein)
fold increase in binding over wild type Cx36 [1]: 5 to 7 times

His-Venus-PDZ1 (ZO-1) (domain or fragment)
fold increase in binding over the wild-type peptide [2]: 10 fold
fold increase in binding over the wild-type peptide [3]: 5 fold

Cx36 D317F (from UniProt O54851 1-321) (natural protein)
fold increase in binding over wild type Cx36 [1]: 5 to 7 times
